Data published in IntAct's records for PubMed 24525235.

Legend:
[1] = target: twst1_human TWIST1 (UniProt Q15672)
[2] = target: twst1_human TWIST1 (UniProt Q15672); remark: listed apart in the source

Row | Substance | effect of a mutation on the interaction [1] | effect of a mutation on the interaction [2]
1 | Bromodomain-containing protein 4 (Homo sapiens) (from UniProt O60885-1) D144H | increasing interaction strength | 
2 | Bromodomain-containing protein 4 (Homo sapiens) (from UniProt O60885-1) H437D |  | decreasing interaction strength
